Results: FireProtDB (doi:10.1016/s0167-4838(99)00132-6)

Settings: Escherichia coli (strain K12), Thermal, DSC, KH2PO4-KOH 10 mM, reversible: no, whole UniProt chain shown

B1: Glyceraldehyde-3-phosphate dehydrogenase A wild type, P0A9B2 (protein)
chain: MTIKVGINGFGRIGRIVFRAAQKRSDIEIVAINDLLDADYMAYMLKYDSTHGRFDGTVEVKDGHLIVNGKKIRVTAERDPANLKWDEVGVDVVAEATGLFLTDETARKHITAGAKKVVMTGPSKDNTPMFVKGANFDKYAGQDIVSNASCTTNCLAPLAKVINDNFGIIEGLMTTVHATTATQKTVDGPSHKDWRGGRGASQNIIPSSTGAAKAVGKVLPELNGKLTGMAFRVPTPNVSVVDLTVRLEKAATYEQIKAAVKAAAEGEMKGVLGYTEDDVVSTDFNGEVCTSVFDAKAGIALNDNFVKLVSWYDNETGYSNKVLDLIAHISK
- Tm (pH 6): 75.3 °C
- unfolding enthalpy (calorimetric) (pH 6): 908 kcal/mol
- Tm (pH 8): 72.6 °C
- unfolding enthalpy (calorimetric) (pH 8): 1080 kcal/mol
